From the DeepSol protein solubility set

assay: soluble on expression in E. coli; label from the status in PepcDB or PDB records

Sequence	soluble on expression in E. coli
MRIVVTRPQRSGERTAAKLEALGHAPVLLPLFHPIHHGERATSALSDPAGAIAVTSAEALRALATCEEQLAPYLSKPLFAVGGATAEAAQETGFEQIFTASGDALGLTVLVKQHRAFLTEEEPLLYLAGRPRGSVFEEGLAAAGIPFRTVDCYEMLPSDISENTLETTLLDTTADMVLLYSSEAARAFFHHVSADKYVTALAATKFICISRNVLFLVPEIFRANAKAAEEPSEAAMFELLHHNSGT	not soluble
MSIYYDLYENPKQEDAEEQKLLHARVVPSGTYTTKEFVERVSMMHHIPHAQLVGAVEAITDELQTLLSRGYIVEFGDLGHFSLTLSLEKEIIDRKEVRSPSIRLKNIKLKVKQTYKRELNSKMDLERISSPTRSNAKISEDECLKKLQDFLEKHPCINRADYCAITGMSRLQALHQLNLFIEKGIIQKYGNGKTVVYIRVV	not soluble
MSSAGVALSPVRSEPLIMPLVRANSCLDSYPDDTIMIYLTLPGSVIPMRVLESDSIESVKLRIQSYRGFVVRNQKLVFGGRELARSNSNMRDYGVSEGNILHLVLKLSDLQVLDVKTTCGKHCRFHVERGRNIGYVKKQISKKRGDFVDPDEQEILYEGEKLEDQSLINDICRNDDSVLHLLVRRSAKVRVKPVEKNFELSIVAPQAKDKKGREAKSIVPPKKLSLEPVVVNSKAKVPLVVKDMIQSASDGLKSGNSPVRSSEGTGGAYFMQGPSGNKFVGVFKPIDEEPMAENNPQGLPLSPNGEGLKKGTKVGEGALREVAAYILDHPKSGNKSMFGEEIGFAGVPPTAMIECLHPGFNHPKGIKTKIGSLQMFTENDGSCEDMGPLSFPVEEVHKISVLDIRLANADRHGGNILMTKDESGKLVLVPIDHGYCLPESFEDCTFEWLYWPQARKPYSAETQEYIRSLDAEEDIDLLKFHGWKMPAETAQTLRISTMLLKKGVERGLTAFEIGTIMCRETLSKKSLVEEMVEEAQEAVLPGTSEAAFLEALSDVMDYHLDHSQEH	not soluble
MLSFINKPRMESKMTIPELRELYQTQQLVEAIIEPSFQEGEWIVEFRHQMGGFVLLTDENGEECRYIDLDSASQSAMAVGFRQVRIENQ	not soluble
MSLSQPNFYQRTHIPYTAYTPEIFQEFVDDYIDSLNSSFVPVKGIHEEQVRDEAVKLYNQLSDSLGVHRPPFPNPRVKTMVFTPFISMVGVTGSMGPFFCEFTLNGDLLPINYPATYTHELAHLLGISSEAEANFYAYQVCTRSQIKGIRFSGYFSILNHVLGNARRLLSEKEYADIINRIRPEIIELAKKNQEYWMAKYSPLIGDVQNWIYDLYLKGNKIESGRKNYSEVIGLLISYQVWKAKTASDEGHHHHHH	soluble
MSLGKYFGTDGVRGEANVELTPELAFKLGRFGGYVLSQHETERPKVFVARDTRISGEMLESALIAGLLSVGIEVYKLGVLATPGVSYLVRTEKASAGVMISASHNPALDNGIKFFGNDGFKLADDQELEIEALLDAPEDTLPRPSAEGLGTLVDYPEGLRKYEKFLVTTGTDLSGMTVALDTANGAASVSARDVFLDLNAEIAVIGEKPNGLNINDGVGSTRPEQLQELVKETGADLGLAFDGDSDRLIAVDETGEIVDGDRIMFIIGKYLSEKGLLAHNTIVTTVMSNLGFHKALDKQGINKAITAVGDRYVVEEMRSSGYNLGGEQSGHVIIMDYNTTGDGQLTAIQLAKVMKETGKSLSELAAEVTIYPQKLVNIRVENSMKERAMEVPAIANIIAKMEDEMAGNGRILVRPSGTEPLLRVMAEAPTDAEVDYYVDTIADVVRTEIGCDNEGHHHHHH	soluble
MSLQKRVTDEDIKERLDKIGFRIAVMSGKGGVGKSTVTALLAVHYAKQGKKVGILDADFLGPSIPHLFGLEKGKVAVSDEGLEPVLTQRLGIKVMSIQFLLPKRETPVIWRGPLIAGMIREFLGRVAWGELDYLLIDLPPGTGDAPLTVMQDAKPNGAVIVSTPQELTAAVVEKAITMAEQTKTAVLGIVENMAYFECPNCGERTYLFGEGKASELARKYKIEFITEIPIDSDLLKLSDLGRVEEYEPDWFEFFPYEGGSHHHHHH	soluble
MWAAYFEKTLVYKQNVKKSRKSKKEDPAEAEKLMKQALEEYLPKYSELLPIILARGTVTLFKNLALTAKDAMTPKEVEPEEPTEEELAQQRRQQRAAAAPQQLEFKFEVAQGMKAVSTNDPEMEKKYAAENEVVAQKQSGATWTPDELASLVRLSTEKYPAGTPNRWEQMGRVLNRSAEDVIAMAGKMKQMKQEDYTKLLMTTIQQSVPVEEKSEDDWSQAEQKAFETALQKYPKGTDERWERISEEIGSKTKKQVMVRFKQLAEMIRKKKTNDT	not soluble
SLSRISPGNFSTNSYTSTIIKDVRFCLLLCRSLMEGWRITLLNEQEKTIFVDADACPVKDEILQTASEYEVQVLFVASFEHYQLSRSNEEKWKYVDPHKEAADLYIANHVKPGDIVVTQDIGLASLLLNRNVSVMSERGRLYKEDTIDFALEGRHFSGKQRRKGVYAKGPKKLNKEDRERFITLLQKILSNDEGILH	not soluble
SMPHSVTLRGPSPWGFRLVGGRDFSAPLTISRVHAGSKAALAALCPGDLIQAINGESTELMTHLEAQNRIKGCHDHLTLSVSRPEGESDL	soluble
MPKGGPSGLSPVYAGIREDLDTLLRAYLQFKSVRFYDYKMMFERRGMVDIFNGRSESSEIIEFNEHLLVQCLSYMEEEACPGMPRSLKERLFGLYSLYTFFFIQQESHVVQIRMNPDCARNFRKFAQFLLVEKIYDAYVHDPCYAKSNQTDEKSHGVPVLANLNDPLCRVKALTEQFDMLGVIHREYSKLKDKFGITGNPLNDPTEILSRVIEKNLKAIEDSAIEKVFDVDQDEQSSVDALSSDGDDEETEKDPDIAENDDNVEETIEPSLPSRKRKRKRRQSKTVPISDPEVLDDLFAREILRDNQPTTSDDSAQRMNVDSKIVPGRKKSRKMSAKKAKINLPRIVKSEQIPPLRGIMKNEDLNNSESCIHENVDIVLTQSDSLKNEIKSEIVALNSSTKTSFKSSRRVSFREKENGELDNTIHEIPRRCHSSDESDEENSDEDPVAESSHRPHLTIQLKPIHEKYETSISMNLIYMKNKEKLISADDFNIFKPVEGAEETFETPFDSLIPEDIDSDDEI	not soluble
MGSDKIHHHHHHMNILIKIRELTNLTNSEKELANYIVVNPKKTLQFKPKELAQAAFVSAATIYRLINKLGLNGIGELKIEIASSLRETNEEKEINYDYPILESDTPYQIMTNLNQIYKGTIDETLNNADPEELVKIGEKLIKAKTIDVYAASANLFFAQNFKFQMQEIGVLVNVPEEDYIQSLSAANSDKDHIAIVVSYGGRSRTLQRVVKILSENDVDIILITSMQANPLVEFATHKIYMASAENHYNKVSSFSTRQSLLSIFDTLYSVYFNHDYEKNIQYKTTNYQKMNSELE	not soluble
MTTFPTLDPELAAALTMLPKVDFADLPNARATYDALIGAMLADLSFDGVSLRELSAPGLDGDPEVKIRFVTPDNTAGPVPVLLWIHGGGFAIGTAESSDPFCVEVARELGFAVANVEYRLAPETTFPGPVNDCYAALLYIHAHAEELGIDPSRIAVGGQSAGGGLAAGTVLKARDEGVVPVAFQFLEIPELDDRLETVSMTNFVDTPLWHRPNAILSWKYYLGESYSGPEDPDVSIYAAPSRATDLTGLPPTYLSTMELDPLRDEGIEYALRLLQAGVSVELHSFPGTFHGSALVATAAVSERGAAEALTAIRRGLRSLSPVS	soluble
KRFGWTNELMFLFAPIPWSRLPYHSIGYRASGRSYARKEHKPFRYNGFSPGIGINSCLWWKVSVRDEYIFRIGLNVGYEYMDQLYAYRHFKVNEEKPLSSLSQRLKHIGHIGLNFALSLN	not soluble
MMGVKAEALTGGFSSAVFDSQRIFKKLMDGMARPGTPQTIETAVAPPLPLAAATGAVLLALCDHDTPVWLNGALRKTAVPGWIGFHTGAPATEEKGAAHFAVIEAGSAIASFGLFAQGSQEYPDRSTTLIIELSDLDGGRELLLSGPGIRHVNIISPSGLPDIFPMLWAENNAIFPRGVDVILTAGDKFVCLPRTTRIKPVEA	not soluble
PGKGEGSPVGIAILGYGTVGSQVLRLLTENHNDFQHRAGGPLEIKGVAASSVEKHRGSLADQLGLLTDDARSLIARDDVDIVVEVIGGIDYPRELILEALHSGKSVVTANKALVAAHSEELAAAADEAGVDLYFEAAVAAAIPVLGPLRRSLAGDQIQSVAGIVNGTTNFILDAMDSTGASYDDMLAEATRLGYAEADPTADVEGHDAASKAAILASLAFHTRVTYADVYCEGISKITADDINAAKEAGFTIKLLAICERLNVDGVEKVSARVHPTLVPRNHPLASVDKSFNAIFVEAEAAGRLMFYGNGAGGNPTASAVLGDIVGAARNKVFGGRAPGESTYADLPIAPFGEVPTRFHIDMEVEDRVGVLADLAKTFSNHGISLRTVRQAEKDGHARLIVVTHTAKESELEATVEQIKNSDSVKKINSVIRLAG	soluble
MGSDKIHHHHHHMKRGLNLDQWVTWPGEDQWGDAKTILPYPEWRKFLGDDDLRALKGAGFDFLRMPVDPSPFLSDQTAALRDDLYASVLDSVRMINRAGLKVIVDMHLIPAGGSRKIGMAQVMDDPRTFDRYLDMVRKMARTLAGEDPEKVAFEPMNEPIVDCDSDGTSLWPDRQRELFAAARSSATKLTLVLTGACYSAASSLEKIDPKAISDDNVIWTFHSYDPFLLTHQGATWAGDFIPYVTGLPYPLNAVPKAQLDATLDIIRARIKAEAPWTRQSGLLAYLDEQVASMDSPDKLLGLMDAPFKKVEAWAKANGVKPENITLGEFGMIRQEYGNAYVMPAQYRAAYVRDMIARAEAHGFSWSVWSYGGAFGIVDAFNGDKGEPDVMDVIRSLH	not soluble
MNASLYQQYVQAKAEHPGKYARDLATLMGISEAELTHSRVGHDAKRLQSDARALLAALESVGEVKAITRNTYAVHEQVGRYENQHLNGHAGLILNPRALDLRLFLNQWASAFTLTEETRHGVRHSIQFFDHQGDALHKVYVTEQTDMSAWEALLAQFIIPENPALQLEPLSTPEAVEPTADDATVDSEWRAMTDVHQFFQLLKRNNLTRQQAFRAVGDDLAYQVDNNSLTQLLHIAQQDQNEIMIFVGNRGCVQIFTGLIEKVTPHNEWINVFNQRFTLHLIETAIAESWITRKPTKDGFVTSLELFAADGTQLAQLYGQRTEGQPEQNQWREQIARLINKDIAA	not soluble
MPAINAKRVYRIMRQNALLLERKPAVPPSKRAHTGRVAVKESNQRWCSDGFEFCCDNGERLRVTFALDCCDREALHWAVTTGGFNSETVQDVMLGAVERRFGNDLPSSPVEWLTDNGSCYRANETRQFARMLGLEPKNTAVRSPESNGIAESFVKTIKRDYISIMPKPDGLTAAKNLAEAFEHYNEWHPHSALGYRSPREYLRQRACNGLSDNRCLEILEHHHHHH	soluble
MSGKEEFQTIKERAKRKLERDMGADLLAALNDPKTVEVMLNADGKVWHERLGEPMRYICDMRPSQSQAIIETVAGFHGKEVTRHSPILEGEFPLDGSRFAGQLPPVVAAPTFAIRKRAVAIFTLEQYVEAGIMTREQYEVIKSAVAAHRNILVIGGTGSGKTTLVNAIINEMVAFNPSERVVIIEDTGEIQCAAENAVQYHTSIDVSMTLLLKTTLRMRPDRILVGEVRGPEALDLLMAWNTGHEGGAATLHANNPKAGLSRLAMLISMHPDSPKPIEPLIGEAVHVVVHIARTPSGRRVQEILEVLGYENGQYITKTL	not soluble
MRLEGLTIGVGFTGSFCTYDKIFIELENLVKEGANVHTIFSDVSQNIDCRFGNSEEFMKKAYELTGNKPIVTIEEAEPFGPKGIADIIIIAPCTGNTAAKLANGITDSPVLMAAKGHLRNDKPLVISISTNDALSFNFKNIGILLNSKNIYFVPFGQDNCKAKPNSMIAHTELIIPTIELALENKQLQPVIKSPHQLEHHHHHH	soluble
MGSDKIHHHHHHMSKNVLIVSASPRKGGNSDLLCDQFIQGVLESKNQVEKIFLKDKDINYCTGCGACYEKEANCSQTDDMGEILEKMIGADVIVLATPVYFYTMNAQMKTMIDRTCSRYTEICDKDFYFIVTAADENVADMERTIEGFRGFTSCLNGSKEKGIVYGVGAWNVGDIKGSKAMKQAYEMGKLA	not soluble
